Assays:
[1] = biological target: T1, Human VSIG4-L-Fc (human); test: BLI binning on hVSIG4-L-Fc, competitor 12A12 first;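 note: normalized to binding of second antibody without first competitor antibody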
T1 construct: also called hVSIG4-L-Fc; hVSIG4-L

[2] = biological target: T2, Human VSIG4-L-His (human, UniProt Q9Y279 20-283); test: BLI (Octet), IgG on AHC sensor, antigen 100 nM
T2 construct: long isoform ECD with His tag; also called hVSIG4-L
T2 sequence: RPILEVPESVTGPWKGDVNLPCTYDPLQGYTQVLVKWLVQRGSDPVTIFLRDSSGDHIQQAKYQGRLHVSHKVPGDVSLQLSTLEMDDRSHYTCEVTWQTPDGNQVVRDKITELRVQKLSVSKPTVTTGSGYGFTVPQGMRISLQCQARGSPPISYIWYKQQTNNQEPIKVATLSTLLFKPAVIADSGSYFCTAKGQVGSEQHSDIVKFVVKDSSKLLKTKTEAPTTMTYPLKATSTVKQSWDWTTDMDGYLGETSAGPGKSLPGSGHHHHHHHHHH

[3] = biological target: T3, Human VSIG4-S-His (human, UniProt Q9Y279 20-283); test: BLI (Octet), IgG on AHC sensor, antigen 100 nM
T3 construct: short isoform ECD with His tag; also called hVSIG4-S; VISG4-S-His
T3 sequence: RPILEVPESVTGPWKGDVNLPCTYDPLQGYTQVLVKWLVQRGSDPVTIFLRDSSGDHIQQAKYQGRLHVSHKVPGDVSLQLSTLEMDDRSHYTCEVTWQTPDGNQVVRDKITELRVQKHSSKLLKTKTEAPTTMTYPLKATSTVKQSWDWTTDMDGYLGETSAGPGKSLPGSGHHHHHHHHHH

[4] = biological target: T4, Human VSIG4-L-CHO (human VSIG4 long isoform on CHO-K1 cells) (human, UniProt Q9Y279 20-399); test: flow cytometry (FJB), 200 nM mAb, huVSIG4-L CHO-K1 cells
T4 construct: also called hVSIG4-L (flow cytometry)
T4 sequence: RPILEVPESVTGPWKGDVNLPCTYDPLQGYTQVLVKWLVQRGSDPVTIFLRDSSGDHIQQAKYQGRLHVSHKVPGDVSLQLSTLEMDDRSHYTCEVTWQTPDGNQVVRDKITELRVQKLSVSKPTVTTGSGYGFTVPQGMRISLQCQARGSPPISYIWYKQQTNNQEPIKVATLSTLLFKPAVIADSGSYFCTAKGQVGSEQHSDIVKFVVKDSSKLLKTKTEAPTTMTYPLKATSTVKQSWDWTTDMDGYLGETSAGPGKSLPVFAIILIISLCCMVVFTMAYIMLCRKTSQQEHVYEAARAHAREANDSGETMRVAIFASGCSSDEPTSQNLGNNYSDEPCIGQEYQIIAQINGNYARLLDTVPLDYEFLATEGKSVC

[5] = biological target: T1, Human VSIG4-L-Fc; test: BLI binning on hVSIG4-L-Fc, competitor 13H11 first;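 note: normalized to binding of second antibody without first competitor antibody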
[6] = biological target: T5, Cynomolgus Monkey VSIG4-L-His (cynomolgus monkey); test: ELISA, IgG 50 nM on coated antigen; ELISA, bivalent IgG on plate-coated cyVSIG4-L (avid format)
T5 construct: ECD with His tag; also called cyVSIG4-L; cyno VSIG4-L-His
T5 chain: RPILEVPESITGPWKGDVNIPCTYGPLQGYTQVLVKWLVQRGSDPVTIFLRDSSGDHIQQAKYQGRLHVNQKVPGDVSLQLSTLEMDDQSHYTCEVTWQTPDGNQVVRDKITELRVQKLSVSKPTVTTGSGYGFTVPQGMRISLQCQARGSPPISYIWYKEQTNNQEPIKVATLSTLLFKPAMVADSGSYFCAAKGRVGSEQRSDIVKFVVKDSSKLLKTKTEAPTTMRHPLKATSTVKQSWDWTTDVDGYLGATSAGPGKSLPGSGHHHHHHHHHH

[7] = biological target: T1, Human VSIG4-L-Fc; test: BLI binning on hVSIG4-L-Fc, competitor 16E10 first;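 note: normalized to binding of second antibody without first competitor antibody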
[8] = biological target: T1, Human VSIG4-L-Fc; test: BLI binning on hVSIG4-L-Fc, competitor 16E03 first;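 note: normalized to binding of second antibody without first competitor antibody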
[9] = biological target: T1, Human VSIG4-L-Fc; test: ligand competition ELISA (FJB), blocked ligand iC3b, 200 nM mAb
[10] = biological target: T4, Human VSIG4-L-CHO (human VSIG4 long …); test: flow cytometry, CHO-K1 cells expressing hVSIG4-L
[11] = biological target: T1, Human VSIG4-L-Fc; test: BLI binning on hVSIG4-L-Fc, competitor 15C04 first;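 note: normalized to binding of second antibody without first competitor antibody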
[12] = biological target: T6, Human VSIG4-S-Fc (human); test: ELISA, IgG 50 nM on coated antigen;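 note: Mouse-human chimeric IgG4 antibodies incubated 1 h on plate-coated VSIG4 proteins, bound IgG detected with HRP-labelled anti-human IgG, irrelevant antibody and protein as specificity controls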
T6 construct: short isoform ECD fused to human Fc1; also called hVSIG4-S
T6 sequence (chain, as listed by the source limits assumed): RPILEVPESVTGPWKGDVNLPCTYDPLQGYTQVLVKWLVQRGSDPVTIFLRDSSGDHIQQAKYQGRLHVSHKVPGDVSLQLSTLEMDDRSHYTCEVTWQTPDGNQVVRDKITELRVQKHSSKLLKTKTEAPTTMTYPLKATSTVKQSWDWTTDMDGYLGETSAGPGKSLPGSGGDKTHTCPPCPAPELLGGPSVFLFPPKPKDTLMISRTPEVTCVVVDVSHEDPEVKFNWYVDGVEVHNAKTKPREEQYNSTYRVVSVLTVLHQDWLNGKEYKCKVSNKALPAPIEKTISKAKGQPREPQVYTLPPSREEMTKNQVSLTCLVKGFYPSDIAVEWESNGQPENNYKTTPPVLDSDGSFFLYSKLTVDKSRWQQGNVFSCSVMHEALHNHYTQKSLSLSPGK

[13] = biological target: T1, Human VSIG4-L-Fc; test: ELISA, IgG 50 nM on coated antigen;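 note: Mouse-human chimeric IgG4 antibodies incubated 1 h on plate-coated VSIG4 proteins, bound IgG detected with HRP-labelled anti-human IgG, irrelevant antibody and protein as specificity controls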
[14] = biological target: T7, Mouse VSIG4-His (mouse); test: ELISA, IgG 50 nM on coated antigen;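 note: Mouse-human chimeric IgG4 antibodies incubated 1 h on plate-coated VSIG4 proteins, bound IgG detected with HRP-labelled anti-human IgG, irrelevant antibody and protein as specificity controls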
T7 construct: ECD with His tag; also called mVSIG4
T7 chain: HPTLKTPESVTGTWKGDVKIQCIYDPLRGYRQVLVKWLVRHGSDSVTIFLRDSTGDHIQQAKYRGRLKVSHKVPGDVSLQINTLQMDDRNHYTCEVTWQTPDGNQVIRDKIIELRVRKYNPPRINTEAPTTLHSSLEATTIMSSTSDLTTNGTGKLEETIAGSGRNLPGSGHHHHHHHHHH

[15] = biological target: T1, Human VSIG4-L-Fc; test: ligand competition ELISA (FJB), blocked ligand C3b, 200 nM mAb
[16] = biological target: T1, Human VSIG4-L-Fc; test: BLI binning on hVSIG4-L-Fc, competitor 14D12 first;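 note: normalized to binding of second antibody without first competitor antibody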
[17] = biological target: T4, Human VSIG4-L-CHO (human VSIG4 long …); test: flow cytometry (FJB), 200 nM mAb, huVSIG4-L CHO-K1 over parental CHO-K1
[18] = biological target: T1, Human VSIG4-L-Fc; test: BLI binning on hVSIG4-L-Fc, competitor 14C05 first;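 note: normalized to binding of second antibody without first competitor antibody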
[19] = biological target: T2, Human VSIG4-L-His; test: SPR (FJB)
[20] = biological target: T1, Human VSIG4-L-Fc; test: BLI binning on hVSIG4-L-Fc, competitor 15A06 first;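 note: normalized to binding of second antibody without first competitor antibody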
[21] = biological target: T1, Human VSIG4-L-Fc; test: BLI binning on hVSIG4-L-Fc, competitor 15C03 first;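 note: normalized to binding of second antibody without first competitor antibody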
[22] = biological target: T1, Human VSIG4-L-Fc; test: BLI binning on hVSIG4-L-Fc, competitor 12A08 first;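 note: normalized to binding of second antibody without first competitor antibody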
[23] = biological target: T5, Cynomolgus Monkey VSIG4-L-His; test: BLI (Octet), IgG on AHC sensor, antigen 100 nM
[24] = biological target: T1, Human VSIG4-L-Fc; test: BLI cross-blocking on hVSIG4-L-Fc, competitor 12A12 first
[25] = biological target: T1, Human VSIG4-L-Fc; test: ligand competition ELISA (FJB), blocked ligand C3b
[26] = biological target: T5, Cynomolgus Monkey VSIG4-L-His; test: ELISA, IgG 50 nM on coated antigen;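 note: Mouse-human chimeric IgG4 antibodies incubated 1 h on plate-coated VSIG4 proteins, bound IgG detected with HRP-labelled anti-human IgG, irrelevant antibody and protein as specificity controls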
[27] = biological target: T2, Human VSIG4-L-His; test: BLI, IgG on AHC sensor, antigen 100 nM
[28] = biological target: T5, Cynomolgus Monkey VSIG4-L-His; test: BLI, IgG on AHC sensor, antigen 100 nM
[29] = biological target: T1, Human VSIG4-L-Fc; test: BLI cross-blocking on hVSIG4-L-Fc, competitor 14C05 first
[30] = biological target: T5, Cynomolgus Monkey VSIG4-L-His; test: SPR (FJB)
[31] = biological target: T1, Human VSIG4-L-Fc; test: ligand blocking of C3b, IgG
[32] = biological target: T1, Human VSIG4-L-Fc; test: BLI cross-blocking on hVSIG4-L-Fc, competitor 16G02 first

Row | Binder | normalized maximum binding nm shift [1] [normalized] | Kd [2] [nM] | Kd [3] [nM] | Binding (200 nM) MFI [4] [MFI] | normalized maximum binding nm shift [5] [normalized] | normalized maximum binding nm shift [7] [normalized] | normalized maximum binding nm shift [8] [normalized] | EC50 [10] [nM] | normalized maximum binding nm shift [11] [normalized] | ELISA OD450 [12] [OD450] | ELISA OD450 [13] [OD450] | ELISA OD450 [14] [OD450] | normalized maximum binding nm shift [16] [normalized] | Binding (200 nM) Fold-Over-Parental [17] [fold] | normalized maximum binding nm shift [18] [normalized] | Kd [19] [nM] | normalized maximum binding nm shift [20] [normalized] | normalized maximum binding nm shift [21] [normalized] | normalized maximum binding nm shift [22] [normalized] | further results
1 | 16E03 mouse/human chimeric IgG4 (S228P) kappa (antibody, V domains shown) VH: QVQLQQSGAELARPGASVKMSCKASGYTFTSYTMHWIKQRPGQGLEWIGYINPSSGHTYYNQKFKDKATLTPDKSSSTAYMQLTSLTSEDSAVYYCARRIPTAYAMDYWGQGTSVTVSS VL: EIQMTQSHKFMSTSVGDRVSITCKASQDVGTAVAWYQQKPGQSPKLLIYWASTRHTGVPDRFTGSGSGTDFTLTISNVQSEDLADYFCQQYSSYPLTFGAGTKLELKR | 0.9 | 49.3 | 49.3 | 30400 | 0.76 | 0.37 | 0.04 | 1 | 0.86 | 4.13 | 4.5 | 0.054 | 0.79 | 23 | 0.78 | 29.7 | 0.83 | 0.1 | 0.13 | ELISA OD450 [6]: 4.36 OD450; % Block iC3b (200 nM mAb) [9]: -3%; % Block C3b (200 nM mAb) [15]: -192%
2 | 14C05 mouse/human chimeric IgG4 (S228P) kappa (antibody, V domains shown) VH: EVMLVESGPELKKPGETVKISCKASGYTFTNYGMNWVKQAPGKGLKWMGSINTYTGEATYADDFKGRFAFSLETSANTAYLQIDNLKNEDTATYFCARGDYYGRGTWFAYWGQGTLVTVSA VL: ETTVTQSHKFMSTSVGDRVSITCKASQDVSTAVAWYQQKPGQSPKLLIYSASYRYPGVPDRFTGSGSGTDFTFTISSVQAEDLAVYYCQQDYSSPWTFGGGTKLEIKR | 0.83 | 3.46 | 2.69 | 109000 | 0.66 | 0.87 | 0.62 | 4.4 | 0.76 | 4.36 | 4.51 | 0.055 | 0.07 | 304 | 0.11 | 1.7 | 0.68 | 0.38 | 0.75 | Kd [23]: 30 nM; binding signal (nm shift) [24]: 0.83 nm; IC50 [25]: 2.4 nM; ELISA OD450 [26]: 4.52 OD450; KD relative to parental chimera [27]: 1 fold; KD relative to parental chimera [28]: 1 fold; binding signal (nm shift) [29]: 0.11 nm; Kd [30]: 5.4 nM; Percent Blocking C3b [31]: 96%; binding signal (nm shift) [32]: 0.16 nm

Source: US20230348603A1 (VERSEAU THERAPEUTICS, published 2023)
